These results are taken from patent US20240368285A1 (HEFEI TG IMMUNOPHARMA, published 2024).

Usually EC50 (read off the curve) stands for the concentration giving half of the maximal effect. By Kd is commonly meant the concentration at which binding is half-saturated. In general, koff refers to a measure of how fast the partners let go of each other. As usually defined, the kon is the second-order rate constant of association. Low readings indicate slow association, high ones fast association.

In assay [1] the target is T1, MICA on human tumor cells (A-375, A549, HCT-15, MDA-MB-231) (human, UniProt Q29983 24-383).
T1 construct: whole, on cells
T1 sequence (looked up): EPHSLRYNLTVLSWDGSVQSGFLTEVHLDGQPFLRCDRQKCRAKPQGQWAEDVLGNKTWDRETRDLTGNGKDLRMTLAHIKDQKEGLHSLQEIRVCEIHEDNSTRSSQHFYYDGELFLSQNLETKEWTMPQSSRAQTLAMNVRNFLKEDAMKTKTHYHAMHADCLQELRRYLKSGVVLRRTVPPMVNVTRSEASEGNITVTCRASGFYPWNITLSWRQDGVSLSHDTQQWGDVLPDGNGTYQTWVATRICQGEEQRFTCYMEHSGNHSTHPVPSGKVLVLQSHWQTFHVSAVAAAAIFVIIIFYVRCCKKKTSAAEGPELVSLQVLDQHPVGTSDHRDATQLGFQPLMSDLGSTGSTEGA
Briefly: flow cytometry on A-549 cells, Alexa-647 goat anti-human secondary, % binding ratio. How it is done:
(2) Tumor cells were diluted to a density of 2×10⁶/mL with PBS and added into a 1.5 ml EP tube in a volume of 100 l/tube. 10 l/tube of goat serum was added into the EP tube; and blocking was conducted at 4° C. for 30 min. […] The tube was incubated at 4° C. for 30 min. 1 mL of PBS was added into the EP tube, and centrifugation was conducted 4° C. at a rate of 3,500 rpm for 5 min. The supernatant was removed. Then, the EP tube was washed once with the PBS, and the supernatant was removed after centrifugation. The cells were resuspended with PBS in a volume of 100 l/tube. An Alexa-647 labeled goat anti-human secondary antibody (purchased from Jackson lab) was added into the tube in a volume of 1 l/tube, and the tube was incubated in the dark at 4° C. for 30 min. The tube was washed twice with PBS, and the supernatant was removed after centrifugation. The cells were resuspended with the PBS in a volume of 200 l/tube, and detection was conducted by a flow cytometer. The results are as shown in FIG. 17A and FIG. 17B, FIG. 18A and FIG. 18B, FIG. 19A and FIG. 19B, and FIG. 20A and FIG. 20B.

Another assay concerns the target T2, MICB001α3-Fc.
T2 construct: also called MICB*001-Fc; domain α3 of MICB-001 Fc fusion protein
Nature of the assay: ELISA on coated MICB*001 α3-Fc (1 µg/ml), HRP anti-human Fab secondary, OD450. How it is done: After the antibodies were added, signal intensity was used for judging the binding characteristics of the antibodies and MICA and MICB.
The fusion proteins (produced in the Applicant's laboratory; an amino acid sequence of MICA002α3-Fc is as set forth in SEQ ID NO: 22; an amino acid sequence of MICA005α3-Fc is as set forth in SEQ ID NO: 24; an amino acid sequence of MICA008α3-Fc is as set forth in SEQ ID NO: 25; an amino acid sequence of MICA004α3-Fc is as set forth in SEQ ID NO: 23; an amino acid sequence of MICB001α3-Fc is as set forth in SEQ ID NO: 26; and an amino acid sequence of MICB005α3-Fc is as set forth in SEQ ID NO: 27) were diluted to a concentration of 1 μg/ml with PBS and then added into a 96-well plate in a volume of 100 μl/well. The plate was placed at 4° C. overnight. The PBS in the 96-well plate was removed by sucking. After the plate was washed with PBST (that is, PBS having a pH value of 7.2 included 0.1 volume % of Tween 20) for 6 times, PBS containing 10% of BSA was added in a volume of 200 μl/well. The plate was incubated at 37° C. for 2 hours for blocking. The blocking solution was removed. […]
(ELISA stands for enzyme-linked immunosorbent assay.)

Another assay has as its target T3, MICA002α3-Fc (human).
T3 construct: Produced in the Applicant's laboratory; also called MICA*002-Fc; domain α3 of MICA-002 Fc fusion protein
Nature of the assay: ELISA on coated MICA*002 α3-Fc (1 µg/ml), HRP anti-human Fab secondary, OD450.

A further assay has as its target T4, MICB005α3-Fc.
T4 construct: also called MICB*005-Fc; domain α3 of MICB-005 Fc fusion protein
Briefly: ELISA on coated MICB*005 α3-Fc (1 µg/ml), HRP anti-human Fab secondary, OD450.

Assay [2] concerns the target T5, MICA protein (SPR analyte) (human, UniProt Q29983 24-308, limits assumed).
T5 construct: also called major histocompatibility complex class I chain related polypeptide A
T5 sequence: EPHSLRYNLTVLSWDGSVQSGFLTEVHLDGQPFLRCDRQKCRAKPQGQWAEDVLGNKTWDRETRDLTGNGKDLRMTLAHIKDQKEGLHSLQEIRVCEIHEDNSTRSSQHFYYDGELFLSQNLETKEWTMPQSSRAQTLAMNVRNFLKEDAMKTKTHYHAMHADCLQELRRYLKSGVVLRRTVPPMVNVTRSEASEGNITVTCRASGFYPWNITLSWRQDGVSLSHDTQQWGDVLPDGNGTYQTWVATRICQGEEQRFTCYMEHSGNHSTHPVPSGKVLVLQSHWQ
Briefly: SPR, Biacore 8K, antibody captured on protein A chip, MICA as analyte. How it is done:
In a Biacore 8K (Cytiva) system, the antibody was diluted to a concentration of 10 µg/mL with running buffer (HBS-EP), and the antibody was conjugated onto a protein A (Cytiva, 29127556) chip at a flow rate of […].
Kinetic and affinity data of binding of the maternal antibody h5A1 and the affinity maturation antibody h5A1002 and MICA were detected.

T3 sequence (chain, as listed by the source limits assumed): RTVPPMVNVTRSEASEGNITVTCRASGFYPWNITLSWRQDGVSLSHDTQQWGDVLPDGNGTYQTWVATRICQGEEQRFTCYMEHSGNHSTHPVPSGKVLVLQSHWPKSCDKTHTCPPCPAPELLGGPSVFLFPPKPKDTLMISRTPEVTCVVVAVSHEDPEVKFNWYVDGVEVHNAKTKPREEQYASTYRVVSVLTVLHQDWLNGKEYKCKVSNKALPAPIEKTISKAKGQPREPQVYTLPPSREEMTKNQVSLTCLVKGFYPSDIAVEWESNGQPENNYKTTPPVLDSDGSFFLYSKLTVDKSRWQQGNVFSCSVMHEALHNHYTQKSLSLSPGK
T2 sequence (chain, as listed by the source limits assumed): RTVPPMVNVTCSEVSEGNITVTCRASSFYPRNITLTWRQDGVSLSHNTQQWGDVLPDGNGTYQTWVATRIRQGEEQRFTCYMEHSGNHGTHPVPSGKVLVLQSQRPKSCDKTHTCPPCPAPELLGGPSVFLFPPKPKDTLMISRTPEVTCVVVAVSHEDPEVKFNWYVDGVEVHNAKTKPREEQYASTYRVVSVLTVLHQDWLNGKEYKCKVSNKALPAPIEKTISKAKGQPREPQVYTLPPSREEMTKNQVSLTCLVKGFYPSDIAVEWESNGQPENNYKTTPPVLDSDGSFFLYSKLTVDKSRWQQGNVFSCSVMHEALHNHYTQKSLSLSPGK
T4 sequence (chain, as listed by the source limits assumed): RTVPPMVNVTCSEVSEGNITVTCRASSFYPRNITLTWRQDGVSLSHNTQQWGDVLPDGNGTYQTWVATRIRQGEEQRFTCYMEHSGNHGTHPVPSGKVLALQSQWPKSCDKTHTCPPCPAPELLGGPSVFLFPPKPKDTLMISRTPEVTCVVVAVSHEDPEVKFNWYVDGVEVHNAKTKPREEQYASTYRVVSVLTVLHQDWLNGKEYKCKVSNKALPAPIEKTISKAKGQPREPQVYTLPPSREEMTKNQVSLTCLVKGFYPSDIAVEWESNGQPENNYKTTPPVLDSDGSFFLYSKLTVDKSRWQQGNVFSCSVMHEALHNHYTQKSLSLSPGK

B1: affinity maturation antibody h5A1002 (antibody, V domains shown)
VH: QVQLQESGPGLVKPSETLSLTCTVSGFSLTTYGGHWIRQPPGKGLEWIGMIWTDGWTDYNAAFISRVTISVDTSKNQFSLKLSSVTAADTAVYYCARKGHGYYYAMDYWGQGTLVTVSS
VL: EIVLTQSPGTLSLSPGERATLSCTASSSVSSSYLHWYQQKPGQAPRLLIYSTSNLISGIPDRFSGSGSGTDFTLTISRLEPEDFAVYYCHQYHRSPFTFGQGTKLEIKR
notes: Human IgG1, kappa; also called h5A1002-hIgG1
With B1, the “EC50 (read off the curve)” value was about 0.4 µg/mL in assay [1], about 0.05 µg/mL with MICB001α3-Fc, about 0.04 µg/mL with MICA002α3-Fc and about 0.04 µg/mL with MICB005α3-Fc. Binding in assay [2] was put at a Kd of 5.4 nM. Also, the koff in assay [2] worked out at 0.000129 s⁻¹. The same molecule displayed a kon in assay [2] of 23800 M⁻¹ s⁻¹.
